{"source": "patent US20220290167", "proteins": {"B1": {"name": "recombinant B. taurus Fam20C expressed from pMOZ14 (protein)", "chain": "MLLPKLERSAARPSGEPGCSCAQPAAEAAAPGWAQARGHPGGELEAAASAAGDAGWPNKHTLRILQDFSSDPSSNLTSHSLEKLPPAAEAAEGAPPGQDPGVRRPPDPAHRPLPRDPGPRGPVLPPGLSGDGSLLTRLFQHPLYQVPIPPLTEGDVLFNVNSDIRFNPKAATAENPDWPHEGPEDEFLPTGEAAVDSYPNWLKFHIGINRYELYSRHNPAVGALLQDLGTQKITSVAMKSGGTQLKLIMTFQNYGQALFKPMKQTREQETPPDFFYFSDYERHNAEIAAFHLDRILDFRRVPPVAGRLVNMTKEIRDVTRDKKLWRTFFISPANNVCFYGECSYYCSTEHALCGKPDQIEGSLAAFLPDLALAKRKTWRNPWRRSYHKRKKAEWEVDPDYCEEVRQTPPYDSSHRLLDVMDMTIFDFLMGNMDRHHYETFEKFGNETFIIHLDNGRGFGKHSHDELSILVPLQQCCRIRRSTYLRLQLLAQEEHRLSLLMAEALRADRVAPVLFQPHLEALDRRLRIVLRAVGDCVEKDGLHSVVEDDLGPEHRAAAGRHDEL"}, "B2": {"name": "recombinant H. sapiens Fam20A expressed from pMOZ12 (protein)", "chain": "QLRPRERPRGCPCTGRASSLARDSAAAASDPGTIVHNFSRTEPRTEPAGGSHSGSSSKLQALFAHPLYNVPEEPPLLGAEDSLLASQEALRYYRRKVARWNRRHKMYREQMNLTSLDPPLQLRLEASWVQFHLGINRHGLYSRSSPVVSKLLQDMRHFPTISADYSQDEKALLGACDCTQIVKPSGVHLKLVLRFSDFGKAMFKPMRQQRDEETPVDFFYFIDFQRHNAEIAAFHLDRILDFRRVPPTVGRIVNVTKEILEVTKNEILQSVFFVSPASNVCFFAKCPYMCKTEYAVCGNPHLLEGSLSAFLPSLNLAPRLSVPNPWIRSYTLAGKEEWEVNPLYCDTVKQIYPYNNSQRLLNVIDMAIFDFLIGNMDRHHYEMFTKFGDDGFLIHLDNARGFGRHSHDEISILSPLSQCCMIKKKTLLHLQLLAQADYRLSDVMRESLLEDQLSPVLTEPHLLALDRRLQTILRTVEGCIVAHGQQSVIVDGPVEQLAPDSGQANLTSHDEL"}, "B3": {"name": "recombinant H. sapiens Fam20C expressed from pMOZ11 (protein)", "chain": "LDLLPRLERRGARPSGEPGCSCAQPAAEVAAPGWAQVRGRPGEPPAASSAAGDAGWPNKHTLRILQDFSSDPSSNLSSHSLEKLPPAAEPAERALRGRDPGALRPHDPAHRPLLRDPGPRRSESPPGPGGDASLLARLFEHPLYRVAVPPLTEEDVLFNVNSDTRLSPKAAENPDWPHAGAEGAEFLSPGEAAVDSYPNWLKFHIGINRYELYSRHNPAIEALLHDLSSQRITSVAMKSGGTQLKLIMTFQNYGQALFKPMKQTREQETPPDFFYFSDYERHNAEIAAFHLDRILDFRRVPPVAGRMVNMTKEIRDVTRDKKLWRTFFISPANNICFYGECSYYCSTEHALCGKPDQIEGSLAAFLPDLSLAKRKTWRNPWRRSYHKRKKAEWEVDPDYCEEVKQTPPYDSSHRILDVMDMTIFDFLMGNMDRHHYETFEKFGNETFIIHLDNGRGFGKYSHDELSILVPLQQCCRIRKSTYLRLQLLAKEEYKLSLLMAESLRGDQVAPVLYQPHLEALDRRLRVVLKAVRDCVERNGLHSVVDDDLDTEHRAASARHDEL"}, "B4": {"name": "recombinant B. taurus Fam20A expressed from pMOZ15 (protein)", "chain": "MHVSSHLGPRVRSRLQPRERPLGCPCARRAASPAPGPAPSAPRRVEPSGGGDPGSKLRALFAHPLYNEPEEPPLLGPEDSLLAGPEALRYYRRKVARWNRRRKMYKEQLNLTSPEPPVQLRQEASWVQFHLGINRHGLYPRSSPVVSKLLQDMRHFPTISADYSQDEKALLGACDCSQIVKPSGVHLKLVLRFSDFGKAMFKPMRQQRDEETPEDFFYFIDFQRHNAEIAAFHLDRILDFRRVPPTVGRLVNVTREILEVTRNEILQSVFFVSPANNVCFFAKCPYMCKTEYAVCGSPHLLEGSLSAFLPSLNLAPRFSMPSPWIRSYSLAGREEWEVNPLYCEAVKQAYPHNSSSRLLNIIDMAIFDFLIGNMDRHHYEMFTKFGEDGFLIHLDNARGFGRHSHDEVSILAPLFQCCRIKRKTLLHLQLLAQADYRLSDVMRESLLEDQLSPVLTEPHLLALDRRLQTVLRTVQDCIEAHGEQSVVADGPVGQWAPDSSRANATSHDEL"}}, "target": "T1, recombinant B. taurus beta casein with HA tag, 6 histidine tag and HDEL peptide, produced by pMOZ702 in N. benthamiana leaf", "T1 chain": "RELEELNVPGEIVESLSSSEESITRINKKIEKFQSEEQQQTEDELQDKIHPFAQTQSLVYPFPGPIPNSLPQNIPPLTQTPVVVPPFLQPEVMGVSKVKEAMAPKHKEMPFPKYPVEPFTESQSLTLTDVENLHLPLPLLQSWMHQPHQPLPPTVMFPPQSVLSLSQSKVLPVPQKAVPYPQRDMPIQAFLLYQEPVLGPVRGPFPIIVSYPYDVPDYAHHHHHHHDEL"}
{"protein": "B1", "values": [{"measurement": "Western blot band migration of beta casein; BtFam20C coexpressed together with BtFam20A in tobacco leaf (FIG. 20, lane 7, '2 bovine kinases')", "result": "In lanes containing beta casein coexpressed with 1 human kinase, 2 human kinases, 1 bovine kinase or 2 bovine kinases the bands are shifted upward on the gel relative to the sample transformed with only beta casein"}]}
{"protein": "B2", "values": [{"measurement": "Western blot band migration of beta casein; HsFam20A coexpressed together with HsFam20C in tobacco leaf (FIG. 19, lanes 3 and 4)", "result": "In lanes containing beta casein coexpressed with the human kinases the bands are shifted upward on the gel relative to the sample transformed with only beta casein"}, {"measurement": "Western blot band migration of beta casein; HsFam20A coexpressed together with HsFam20C in tobacco leaf (FIG. 20, lane 8, '2 human kinases')", "result": "In lanes containing beta casein coexpressed with 1 human kinase, 2 human kinases, 1 bovine kinase or 2 bovine kinases the bands are shifted upward on the gel relative to the sample transformed with only beta casein"}]}
{"protein": "B3", "values": [{"measurement": "Western blot band migration of beta casein; HsFam20C alone coexpressed in tobacco leaf (FIG. 20, lane 5, '1 human kinase')", "result": "In lanes containing beta casein coexpressed with 1 human kinase, 2 human kinases, 1 bovine kinase or 2 bovine kinases the bands are shifted upward on the gel relative to the sample transformed with only beta casein"}, {"measurement": "Western blot band migration of beta casein; HsFam20C coexpressed together with HsFam20A in tobacco leaf (FIG. 19, lanes 3 and 4)", "result": "In lanes containing beta casein coexpressed with the human kinases the bands are shifted upward on the gel relative to the sample transformed with only beta casein"}, {"measurement": "Western blot band migration of beta casein; HsFam20C coexpressed together with HsFam20A in tobacco leaf (FIG. 20, lane 8, '2 human kinases')", "result": "In lanes containing beta casein coexpressed with 1 human kinase, 2 human kinases, 1 bovine kinase or 2 bovine kinases the bands are shifted upward on the gel relative to the sample transformed with only beta casein"}]}
{"protein": "B4", "values": [{"measurement": "Western blot band migration of beta casein; BtFam20A coexpressed together with BtFam20C in tobacco leaf (FIG. 20, lane 7, '2 bovine kinases')", "result": "In lanes containing beta casein coexpressed with 1 human kinase, 2 human kinases, 1 bovine kinase or 2 bovine kinases the bands are shifted upward on the gel relative to the sample transformed with only beta casein"}]}
